# Assay results taken from US20220175781A1, “CD40L COMPOSITIONS AND METHODS FOR TUNABLE REGULATION” (Obsidian Therapeutics, Inc., priority 2019, published 2022).
# B1: OT-001662: CD40L construct with ecDHFR (M1del, R12Y, Y100I) DRD, ligand TMP (protein)
# chain: MSGISLIAALAVDYVIGMENAMPWNLPADLAWFKRNTLNKPVIMGRHTWESIGRPLPGRKNIILSSQPGTDDRVTWVKSVDEAIAACGDVPEIMVIGGGRVIEQFLPKAQKLYLTHIDAEVEGDTHFPDYEPDDWESVFSEFHDADAQNSHSYCFEILERRHMIETYNQTSPRSAATGLPISMKIFMYLLTVFLITQMIGSALFAVYLHRRLDKIEDERNLHEDFVFMKTIQRCNTGERSLSLLNCEEIKSQFEGFVKDIMLNKEETKKENSFEMQKGDQNPQIAAHVISEASSKTTSVLQWAEKGYYTMSNNLVTLENGKQLTVKRQGLYYIYAQVTFCSNREASSQAPFIASLCLKSPGRFERILLRAANTHSSAKPCGQQSIHLGGVFELQPGASVFVNVTDPSQVSHGTGFTSFGLLKL
# Experiments:
# Type in all cases: cell-based
# [1] = system: T cells co-cultured with monocyte derived dendritic cells (mDC); test: CD40L levels in T cells in mDC co-culture (FACS); details: for % CD40L+ / CD40L MFI: mDC co-culture 2 days; for SR (based on %) / SR (based on MFI): stabilization ratio
# Source text: (§1) In order to engage dendritic cells in an immune response, dendritic cells must be converted to a functional state by an antigen-specific CD4+ helper T cell. Activation of the dendritic cells may be followed by the activation of CD8+ T cells by the dendritic cells, a process referred to as dendritic cell licensing. Engagement of the CD40L expressed on the CD4+ cells with the CD40 on the dendritic cells can result in (i) dendritic cell stimulation-measured by expression of co-stimulatory and MHC molecules (ii) proinflammatory cytokine release (e.g. IL12, TNFα and INFγ) (iii) epitope spreading. To measure the effect of CD40L expression that is tuned by the biocircuits of the present disclosure, CD4+ T cells or Jurkat cells expressing any of the CD40L constructs described herein were co-cultured with dendritic cells.
# (§2) Dendritic cell function in response to co-culture with T cells expressing CD40L was evaluated in the presence of ligand or corresponding vehicle control. Monocyte derived dendritic cells (mDC) (CD14+) were isolated from fresh blood and cultured for 5 days with IL-4 (7.5 ng/mL) and GM-CSF (20 ng/mL). The mDCs were frozen down after the 5 day culture. T cells were transduced with OT-001662 and expanded for 9 days before being frozen down. mDCs and T cells were thawed and co-cultured 1:10 DC: T cell ratio (i.e. 5×10^4 DCs: 5×10^5 T cells). mDC and T cells were co-cultured for 2 days before cells were collected for flow cytometry and supernatants were collected for cytokine analysis. For evaluation of regulated constructs, ligand (various doses of TMP) was added at the time initiating the co-culture and was kept in the co-culture for 2 days. Cytokines were analyzed by MSD after a single freeze thaw cycle. All cells were cultured in complete RPMI with 10% FBS during the course of the experiment. SR indicates stabilization ratio.
# [2] = system: T cells; test: Dose response of TMP, Bazedoxifene or Raloxifene, % CD40L positive T cells; details: T cells
# Method: T cells were transduced with OT-001662 or OT-001666. On day 4, cells were treated with increasing doses of TMP for T cells expressing OT-001662. Cells expressing OT-001666 were treated either with increasing concentrations of Bazedoxifene or Raloxifene. The data are shown in Table 30 as the percentage of CD40L positive T cells.
# [3] = system: CD4+ T cells; test: Ligand dose response, % CD40L positive cells, CD4+ T cells
# Method: Ligand dose response curve experiments were performed with increasing doses of ligand using OT-001662 and OT-001666 constructs in both CD4+ as well as CD8+ T cells.
# The experiments were conducted using three different volumes of virus for transduction i.e. 0.5, 2 and 10 μL.
# [4] = system: T cells (CD4+ and CD8+); test: Regulation of CD40L in T cells by different drug responsive domains
# [5] = system: Monocyte derived dendritic cells (mDC); test: Cytokine production in mDC-T cell co-culture (MSD); details: for Cytokine Production IFNg / Cytokine Production IL12 / Cytokine Production TNFa: mDC-T cell co-culture 2 days
# Source text: as §1, §2
# [6] = system: HEK-Blue™ CD40 cells; test: HEK-Blue CD40 SEAP reporter co-culture with transduced Jurkat cells; details: ligand 24 h (1 μM Shield-1, 50 μM TMP or 1 μM Bazedoxifene), recombinant soluble CD40L as standard
# Method: Jurkat cells transduced with OT-001661, OT-001685, OT-001662, OT-001666, or OT-001667 were co-cultured with HEK-Blue™ CD40 cells (Invivogen, San Diego, Calif.). Cocultures were treated with ligands (1 μM Shield-1, 50 μM TMP, 1 μM Bazedoxifene (BZD) or vehicle control) for 24 hours and the secreted embryonic alkaline phosphatase (SEAP) reporter levels were measured in the media. All vehicle treated samples had background SEAP activity. Recombinant soluble CD40L was used as the standard in the experiments.
# [7] = system: Jurkat cells; test: Surface expression of CD40L by FACS in lentivirally transduced Jurkat cells; details: FACS
# Method: 50,000 Jurkat cells were transduced with lentiviruses corresponding to the constructs. OT-001661, OT-001685, OT-001662, or OT-001666 and cultured for 48h. Cells were split and incubated with ligands for 24h before analysis by flow cytometry.
# Jurkat cells were treated with one of the following: 1 μM Shield-1, 50 μM TMP, 1 μM Bazedoxifene (BZD) or vehicle control. Surface expression of CD40L was measured using FACS and the results are show in Table 9. All values were normalized to mode.
# [8] = ligand 24 h (1 μM Shield-1 OT-001685, 50 μM TMP OT-001662, 1 μM Bazedoxifene OT-001666)
# [9] = vehicle 24 h (Ethanol 0.2% OT-001685, DMSO 0.5% OT-001662, DMSO 0.01% OT-001666)
molecule,measurement,setting,value
B1,% CD40L+,"[1]; CD4+, DMSO",3.71%
same,CD40L MFI,"[1]; CD4+, DMSO",63.8
same,% CD40L+,"[1]; CD4+, TMP (0.1 μM)",4.32%
same,CD40L MFI,"[1]; CD4+, TMP (0.1 μM)",69.8
same,% CD40L+,"[1]; CD4+, TMP (0.5 μM)",3.34%
same,CD40L MFI,"[1]; CD4+, TMP (0.5 μM)",61.1
same,% CD40L+,"[1]; CD4+, TMP (2 μM)",78%
same,CD40L MFI,"[1]; CD4+, TMP (2 μM)",691
same,% CD40L+,"[1]; CD4+, TMP (10 μM)",84.1%
same,CD40L MFI,"[1]; CD4+, TMP (10 μM)",1379
same,SR (based on %),"[1]; CD4+, TMP (0.1 μM)",1.16
same,SR (based on MFI),"[1]; CD4+, TMP (0.1 μM)",1.09
same,SR (based on %),"[1]; CD4+, TMP (0.5 μM)",0.90
same,SR (based on MFI),"[1]; CD4+, TMP (0.5 μM)",0.96
same,SR (based on %),"[1]; CD4+, TMP (2 μM)",21.02
same,SR (based on MFI),"[1]; CD4+, TMP (2 μM)",10.83
same,SR (based on %),"[1]; CD4+, TMP (10 μM)",22.67
same,SR (based on MFI),"[1]; CD4+, TMP (10 μM)",21.61
same,% CD40L+,"[1]; CD8+, DMSO",0.47%
same,CD40L MFI,"[1]; CD8+, DMSO",57.8
same,% CD40L+,"[1]; CD8+, TMP (0.1 μM)",0.69%
same,CD40L MFI,"[1]; CD8+, TMP (0.1 μM)",61.5
same,% CD40L+,"[1]; CD8+, TMP (0.5 μM)",0.57%
same,CD40L MFI,"[1]; CD8+, TMP (0.5 μM)",54.5
same,% CD40L+,"[1]; CD8+, TMP (2 μM)",57.8%
same,CD40L MFI,"[1]; CD8+, TMP (2 μM)",419
same,% CD40L+,"[1]; CD8+, TMP (10 μM)",74.9%
same,CD40L MFI,"[1]; CD8+, TMP (10 μM)",951
same,SR (based on %),"[1]; CD8+, TMP (0.1 μM)",1.47
same,SR (based on MFI),"[1]; CD8+, TMP (0.1 μM)",1.06
same,SR (based on %),"[1]; CD8+, TMP (0.5 μM)",1.21
same,SR (based on MFI),"[1]; CD8+, TMP (0.5 μM)",0.94
same,SR (based on %),"[1]; CD8+, TMP (2 μM)",122.98
same,SR (based on MFI),"[1]; CD8+, TMP (2 μM)",7.25
same,SR (based on %),"[1]; CD8+, TMP (10 μM)",159.36
same,SR (based on MFI),"[1]; CD8+, TMP (10 μM)",16.45
same,Ligand dependent regulation of CD40L,"[1]; mDC-T cell co-culture 2 days, various doses of TMP, CD4 and CD8+ cells",Ligand dependent regulation of CD40L was evident
same,"% CD40L positive T cells, dose response",[2]; increasing doses of TMP,dose dependent increase
same,Percent of cells expressing CD40L,[2]; TMP Dose 0.01 μM,8.74%
same,Percent of cells expressing CD40L,[2]; TMP Dose 0.1 μM,13.3%
same,Percent of cells expressing CD40L,[2]; TMP Dose 1 μM,38.8%
same,Percent of cells expressing CD40L,[2]; TMP Dose 10 μM,71%
same,Percent of cells expressing CD40L,[2]; TMP Dose 100 μM,73.3%
same,% CD40L positive cells,"[3]; 0.5 μL virus, TMP 0.05 nM",31.6%
same,% CD40L positive cells,"[3]; 0.5 μL virus, TMP 0.5 nM",32%
same,% CD40L positive cells,"[3]; 0.5 μL virus, TMP 5 nM",33.9%
same,% CD40L positive cells,"[3]; 0.5 μL virus, TMP 50 nM",35.7%
same,% CD40L positive cells,"[3]; 0.5 μL virus, TMP 500 nM",48.2%
same,% CD40L positive cells,"[3]; 0.5 μL virus, TMP 5000 nM",67%
same,% CD40L positive cells,"[3]; 0.5 μL virus, TMP 50000 nM",68.9%
same,% CD40L positive cells,"[3]; 2 μL virus, TMP 0.05 nM",25.1%
same,% CD40L positive cells,"[3]; 2 μL virus, TMP 0.5 nM",24.4%
same,% CD40L positive cells,"[3]; 2 μL virus, TMP 5 nM",27.6%
same,% CD40L positive cells,"[3]; 2 μL virus, TMP 50 nM",37.4%
same,% CD40L positive cells,"[3]; 2 μL virus, TMP 500 nM",68.4%
same,% CD40L positive cells,"[3]; 2 μL virus, TMP 5000 nM",76.8%
same,% CD40L positive cells,"[3]; 2 μL virus, TMP 50000 nM",76.8%
same,% CD40L positive cells,"[3]; 10 μL virus, TMP 0.05 nM",23.8%
same,% CD40L positive cells,"[3]; 10 μL virus, TMP 0.5 nM",24.2%
same,% CD40L positive cells,"[3]; 10 μL virus, TMP 5 nM",24.6%
same,% CD40L positive cells,"[3]; 10 μL virus, TMP 50 nM",30.7%
same,% CD40L positive cells,"[3]; 10 μL virus, TMP 500 nM",58.5%
same,% CD40L positive cells,"[3]; 10 μL virus, TMP 5000 nM",79.1%
same,% CD40L positive cells,"[3]; 10 μL virus, TMP 50000 nM",78.8%
same,CD40L positive,"[4]; All Cells, 10 uM TMP",89.7%
same,MFI,"[4]; All Cells, 10 uM TMP",2122
same,CD40L positive,"[4]; All Cells, DMSO",7.6%
same,MFI,"[4]; All Cells, DMSO",140
same,CD40L positive,"[4]; CD4+, 10 uM TMP",94.4%
same,MFI,"[4]; CD4+, 10 uM TMP",2608
same,CD40L positive,"[4]; CD4+, DMSO",8.8%
same,MFI,"[4]; CD4+, DMSO",152
same,CD40L positive,"[4]; CD8+, 10 uM TMP",74.9%
same,MFI,"[4]; CD8+, 10 uM TMP",1070
same,CD40L positive,"[4]; CD8+, DMSO",91.8%
same,MFI,"[4]; CD8+, DMSO",2.1
same,"IL12, TMP dose response",[5]; mDC-T cell co-culture,dose responsive increases
same,"TNFα, TMP dose response",[5]; mDC-T cell co-culture,dose responsive increases
same,Cytokine Production IFNg,[5]; DMSO,3791.2 pg/mL
same,Cytokine Production IL12,[5]; DMSO,0.2535 pg/mL
same,Cytokine Production TNFa,[5]; DMSO,82.2712 pg/mL
same,Cytokine Production IFNg,[5]; TMP (0.1 μM),7432.13 pg/mL
same,Cytokine Production IL12,[5]; TMP (0.1 μM),0.0705 pg/mL
same,Cytokine Production TNFa,[5]; TMP (0.1 μM),130.9627 pg/mL
same,Cytokine Production IFNg,[5]; TMP (0.5 μM),3587.14 pg/mL
same,Cytokine Production TNFa,[5]; TMP (0.5 μM),83.86 pg/mL
same,Cytokine Production IFNg,[5]; TMP (2 μM),16375.2 pg/mL
same,Cytokine Production IL12,[5]; TMP (2 μM),19.372 pg/mL
same,Cytokine Production TNFa,[5]; TMP (2 μM),248.7836 pg/mL
same,Cytokine Production IFNg,[5]; TMP (10 μM),13539.7 pg/mL
same,Cytokine Production IL12,[5]; TMP (10 μM),59.254 pg/mL
same,Cytokine Production TNFa,[5]; TMP (10 μM),251.2844 pg/mL
same,levels of IFNγ,"[5]; mDC-T cell co-culture, 10 μM TMP",comparable to the levels observed with the constitutive construct OT-001661
same,"IFNγ, TMP dose response","[5]; mDC-T cell co-culture, lower doses of TMP",dose responsive increase
same,Soluble CD40L,[6],8657.75 pg/mL
same,CD40L positive percent of live cells,[7]; [8],98.4%
same,Geometric Mean of CD40L fluorescent intensity,[7]; [8],6068
same,CD40L positive percent of live cells,[7]; [9],0.023%
same,Geometric Mean of CD40L fluorescent intensity,[7]; [9],27.9
